Experimental data: PMC8217473 (2021)
Like-named read-outs stand apart in the source and are kept apart here.

What was measured:
[1] = biological target: T1, RBD-Fc (receptor binding domain of SARS-CoV-2 spike fused to Fc) (SARS-CoV-2, UniProt P0DTC2); assay: SPR
[2] = biological target: T1, RBD-Fc (receptor binding domain of …); assay: SPR; remark: listed apart in the source

Row | Binder | Kd [1] [nM] | Kd [2] [nM]
1 | 3N39 mutant sACE2-His (domain or fragment) QSTIEEQVETFLDNFNHKAEDLFYQSSLASWNYNTNITEENVQNMNIAGDKWSAFLKEQSTFAQMYPLQEIQHLTVKLQLQALQQNGSSVLSEDKSKRLNTILNTMSTIYSTGKVCNPDNPQECLLLEPGLNEIMANSLDYNERLWAWESWRSEVGKQLRPLYEEYVVLKNEMARANHYEDYGDYWRGDYEVNGVDGYDYSRGQLIEDVEHTFEEIKPLYEHLHAYVRAKLMNAYPSYISPIGCLPAHLLGDMWGRFWTNLYSLTVPFGQKPNIDVTDAMVDQAWDAQRIFKEAEKFFVSVGLPNMTQGFWENSMLTDPGNVQKAVCHPTAWDLGKGDFRILMCTKVTMDDFLTAHHEMGHIQYDMAYAAQPFLLRNGANEGFHEAVGEIMSLSAATPKHLKSIGLLSPDFQEDNETEINFLLKQALTIVGTLPFTYMLEKWRWMVFKGEIPKDQWMKKWWEMKREIVGVVEPVPHDETYCDPASLFHVSNDYSFIRYYTRTLYQFQFQEALCQAAKHEGPLHKCDISNSTEAGQKLFNMLRLGKSEPWTLALENVVGAKNMNVRPLLNYFEPLFTWLKDQNKNSFVGWSTDWSPYAD | 0.29 | 0.32
2 | 3N39v2 mutant sACE2-His (domain or fragment) QSTIEEQVKTFLDNFNHKAEDLFYQSSLASWNYNTNITEENVQNMNNAGDKWSAFLKEQSTFAQMYPLQEIQNLTVKLQLQALQQNGSSVLSEDKSKRLNTILNTMSTIYSTGKVCNPDNPQECLLLEPGLNEIMANSLDYNERLWAWESWRSEVGKQLRPLYEEYVVLKNEMARANHYEDYGDYWRGDYEVNGVDGYDYSRGQLIEDVEHTFEEIKPLYEHLHAYVRAKLMNAYPSYISPIGCLPAHLLGDMWGRFWTNLYSLTVPFGQKPNIDVTDAMVDQAWDAQRIFKEAEKFFVSVGLPNMTQGFWENSMLTDPGNVQKAVCHPTAWDLGKGDFRILMCTKVTMDDFLTAHHEMGHIQYDMAYAAQPFLLRNGANEGFHEAVGEIMSLSAATPKHLKSIGLLSPDFQEDNETEINFLLKQALTIVGTLPFTYMLEKWRWMVFKGEIPKDQWMKKWWEMKREIVGVVEPVPHDETYCDPASLFHVSNDYSFIRYYTRTLYQFQFQEALCQAAKHEGPLHKCDISNSTEAGQKLFNMLRLGKSEPWTLALENVVGAKNMNVRPLLNYFEPLFTWLKDQNKNSFVGWSTDWSPYAD | – | 0.54
